Where two headings read alike, the source gives them in different places.
Columns and labels:
[1] = tested on: GMP synthetase from Ehrlich ascites cells; details: cited from earlier work
[2] = tested on: lymphocyte; details: can be blocked by exogenous guanosine; cited from earlier work
[3] = tested on: IMP dehydrogenase; details: cited from earlier work
[4] = tested on: transplant rejection and rheumatoid arthritis; details: recent clinical trials; cited from earlier work
[5] = partially purified, approximately 50-fold, human fibroblast cells; cited from earlier work
[6] = Spectrophotometric-coupled assay of Spector (rate of AMP production; specific activity of enzyme preparations); type: biochemical
Description: The medium will usually be a salt medium such as normal saline, phosphate buffer, or phosphate buffered saline containing additives well known to those skilled in the art and commercially available from a number of suppliers such as GIBCO and Hyclone. The cultured cells are then homogenized under conventional conditions such as, for example, sonication, freeze-thawing, and hypotonic lysis, and the cytosolic fraction is obtained by centrifugation and recovery of the supernatant. Differential salt fractionation, using, for example, ammonium sulfate, is employed to separate the GMP synthetase-richprotein fraction. Salt is then removed by one of a variety of known methods such as gel filtration, dialysis and the like. The desalted protein fraction is then subjected to anion exchange chromatography. […] Fractions showing GMP-synthetase activity are further subjected to hydrophobic interaction chromatography and a second purification via anion exchange chromatography. […] The assay measures the rate of production of AMP by GMP synthetase by coupling it to the oxidation of NADH via the auxiliary enzymes AMP kinase, pyruvate kinase and lactate dehydrogenase.
This assay measured the rate of AMP production by GMP synthetase, and the level of AMP is measured through the activity of three auxiliary enzymes. […] This rate is referred to as background rate.

[7] = purified enzyme, repeated purifications or single preparation

With `O=P(O)(O)OP(=O)(O)O` [pyrophosphate] as the molecule, how does the “inhibition of the enzyme by its reaction product” value [1] read?
Its value is “inhibition”.

Which “inhibition of lymphocyte proliferation, correlated with lowering of the intracellular pool of guanine nucleotides” value [2] does the source give for `COc1c(C)c2c(c(O)c1C/C=C(\C)CCC(=O)O)C(=O)OC2` [mycophenolic acid] here?
The value was “inhibition of lymphocyte proliferation”.

And the “inhibitor of IMP dehydrogenase” value [3]?
The value was “potent inhibitor”.

What about the “effective in treatment of transplant rejection and rheumatoid arthritis” value [4] of the same molecule?
The value was “effective”.

For “partially purified preparation from human fibroblast cells: GMP synthetase from human fibroblasts, purified approximately 50-fold by ammonium sulfate fractionation and gel filtration”, which specific activity [5] is on record?
Its specific activity is 5990 pmoles guanine compound produced/min/mg.

For “human GMP synthetase: purified human GMP synthetase from A3.01 cells, single Coomassie blue-staining band at 75 kDa”, which specific activity ([6]; Mono Q pool, purified from A3.01 cells) is on record?
Its specific activity is 3.0 μmol AMP/min-mg.

And the specific activity [6, 7]?
Its specific activity is 2.5-4.0 μmol AMP produced/min/mg.

Which results are given for “recombinant human GMP synthetase: baculoviral expressed human GMP synthetase purified from Sf-9 cells”?
specific activity [6, 7]: 3.0-4.4 μmol AMP produced/min/mg; specific activity ([6]; purified enzyme, repeated purifications or single preparation, listed as purified protein): 4.4 μmol AMP produced/min/mg
